In patent US20240076348A1:

Biological target: Colony-stimulating factor-1 receptor (CSF-1R), encoded by c-fms (UniProt P07333)
Experiment: cell-based or functional assay

C34B pCAR (CSF1-28z plus IL34-41BB), expressed on human T-cells (from UniProt P09603 33-190; Q6ZMJ4 21-242)
tumour cell killing on repeated re-stimulation, MTT assay on T47D FMS and T47D monolayers (iterative cycles of re-stimulation): < 13
